Experimental data taken from patent US20240101682A1 (PINETREE THERAPEUTICS, published 2024).

Tests used:
[1] = biological target: T1, recombinant human NRP1, biotinylated (human, UniProt O14786-2 22-644, limits assumed, biotinylated (site not stated)); test: BLI (Octet Red 96), biotinylated antigen on streptavidin sensor, bsAb in solution, bivalent format
T1 construct: also called huNRP1; recombinant NRP1

[2] = biological target: T2, recombinant human EGFR, biotinylated (human, UniProt P00533 25-645, biotinylated (site not stated)); test: as above
T2 construct: also called huEGFR; recombinant huEGFR

Binder	Kd [1]	Kd [2]
bsAb with heavy chain polypeptide SEQ ID NO: 1 and light chain SEQ ID NO: 12 (control) (bispecific antibody, human IgG2, kappa) heavy: QVQLQESGPGLVKPSETLSLTCTVSGGSVSSGDYYWTWIRQSPGKGLEWIGHIYYSGNTNYNPSLKSRLTISIDTSKTQFSLKLSSVTAADTAIYYCVRDRVTGAFDIWGQGTMVTVSSASTKGPSVFPLAPCSRSTSESTAALGCLVKDYFPEPVTVSWNSGALTSGVHTFPAVLQSSGLYSLSSVVTVPSSNFGTQTYTCNVDHKPSNTKVDKTVERKCCVECPPCPAPPVAGPSVFLFPPKPKDTLMISRTPEVTCVVVDVSHEDPEVQFNWYVDGVEVHNAKTKPREEQFNSTFRVVSVLTVVHQDWLNGKEYKCKVSNKGLPAPIEKTISKTKGQPREPQVYTLPPSREEMTKNQVSLTCLVKGFYPSDIAVEWESNGQPENNYKTTPPMLDSDGSFFLYSKLTVDKSRWQQGNVFSCSVMHEALHNHYTQKSLSLSPGKGGGGSGGGGSGGGGSHTPGNSKPTRTPRR light: not shown	69.7 nM	
bsAb with heavy chain polypeptide SEQ ID NO: 3 and light chain SEQ ID NO: 12 (bispecific antibody, human IgG2, kappa) heavy: QVQLQESGPGLVKPSETLSLTCTVSGGSVSSGDYYWTWIRQSPGKGLEWIGHIYYSGNTNYNPSLKSRLTISIDTSKTQFSLKLSSVTAADTAIYYCVRDRVTGAFDIWGQGTMVTVSSASTKGPSVFPLAPCSRSTSESTAALGCLVKDYFPEPVTVSWNSGALTSGVHTFPAVLQSSGLYSLSSVVTVPSSNFGTQTYTCNVDHKPSNTKVDKTVERKCCVECPPCPAPPVAGPSVFLFPPKPKDTLMISRTPEVTCVVVDVSHEDPEVQFNWYVDGVEVHNAKTKPREEQFNSTFRVVSVLTVVHQDWLNGKEYKCKVSNKGLPAPIEKTISKTKGQPREPQVYTLPPSREEMTKNQVSLTCLVKGFYPSDIAVEWESNGQPENNYKTTPPMLDSDGSFFLYSKLTVDKSRWQQGNVFSCSVMHEALHNHYTQKSLSLSPGKGGGGSGGGGSGGGGSEVQLVESGGGLVQPGGSLRLSCAASGFTFSSYAMSWVRQAPGKGLEWVSQISPAGGYTNYADSVKGRFTISADTSKNTAYLQMNSLRAEDTAVYYCARGELPYFRMSKVMDVWGQGTLVTVSSGGGGSGGGGSGGGGSDIQMTQSPSSLSASVGDRVTITCRASQFLSSYLAWYQQKPGKAPKLLIYGASARASGVPSRFSGSGSGTDFTLTISSLQPEDFATYYCQQYLASPATFGQGTKVEIK light: not shown	0.53 nM	< 0.1 nM

Next, values leading:

Kd [1]	Kd [2]	Binder
0.19 nM	< 0.1 nM	bsAb with heavy chain polypeptide SEQ ID NO: 2 and light chain SEQ ID NO: 12 (bispecific antibody, human IgG2, kappa) heavy: QVQLQESGPGLVKPSETLSLTCTVSGGSVSSGDYYWTWIRQSPGKGLEWIGHIYYSGNTNYNPSLKSRLTISIDTSKTQFSLKLSSVTAADTAIYYCVRDRVTGAFDIWGQGTMVTVSSASTKGPSVFPLAPCSRSTSESTAALGCLVKDYFPEPVTVSWNSGALTSGVHTFPAVLQSSGLYSLSSVVTVPSSNFGTQTYTCNVDHKPSNTKVDKTVERKCCVECPPCPAPPVAGPSVFLFPPKPKDTLMISRTPEVTCVVVDVSHEDPEVQFNWYVDGVEVHNAKTKPREEQFNSTFRVVSVLTVVHQDWLNGKEYKCKVSNKGLPAPIEKTISKTKGQPREPQVYTLPPSREEMTKNQVSLTCLVKGFYPSDIAVEWESNGQPENNYKTTPPMLDSDGSFFLYSKLTVDKSRWQQGNVFSCSVMHEALHNHYTQKSLSLSPGKGGGGSGGGGSGGGGSEVQLVESGGGLVQPGGSLRLSCAASGFTFSSYAMSWVRQAPGKGLEWVSQISPAGGYTNYADSVKGRFTISADTSKNTAYLQMNSLRAEDTAVYYCARGELPYYRMSKVMDVWGQGTLVTVSSGGGGSGGGGSGGGGSDIQMTQSPSSLSASVGDRVTITCRASQYFSSYLAWYQQKPGKAPKLLIYGASSRASGVPSRFSGSGSGTDFTLTISSLQPEDFATYYCQQYLGSPPTFGQGTKVEIK light: not shown
	< 0.1 nM	bsAb with heavy chain polypeptide SEQ ID NO: 4 and light chain SEQ ID NO: 12 (bispecific antibody, human IgG2, kappa) heavy: QVQLQESGPGLVKPSETLSLTCTVSGGSVSSGDYYWTWIRQSPGKGLEWIGHIYYSGNTNYNPSLKSRLTISIDTSKTQFSLKLSSVTAADTAIYYCVRDRVTGAFDIWGQGTMVTVSSASTKGPSVFPLAPCSRSTSESTAALGCLVKDYFPEPVTVSWNSGALTSGVHTFPAVLQSSGLYSLSSVVTVPSSNFGTQTYTCNVDHKPSNTKVDKTVERKCCVECPPCPAPPVAGPSVFLFPPKPKDTLMISRTPEVTCVVVDVSHEDPEVQFNWYVDGVEVHNAKTKPREEQFNSTFRVVSVLTVVHQDWLNGKEYKCKVSNKGLPAPIEKTISKTKGQPREPQVYTLPPSREEMTKNQVSLTCLVKGFYPSDIAVEWESNGQPENNYKTTPPMLDSDGSFFLYSKLTVDKSRWQQGNVFSCSVMHEALHNHYTQKSLSLSPGKGGGGSGGGGSGGGGSEVQLVESGGGLVQPGGSLRLSCAASGFTFSSYAMSWVRQAPGKGLEWVSQISPAGGYTNYADSVKGRFTISADTSKNTAYLQMNSLRAEDTAVYYCARGELPYYQMSKVMDVWGQGTLVTVSSGGGGSGGGGSGGGGSDIQMTQSPSSLSASVGDRVTITCRASQYFSSYLAWYQQKPGKAPKLLIYGASARASGVPSRFSGSGSGTDFTLTISSLQPEDFATYYCQQYLASPATFGQGTKVEIK light: not shown
